Test results reported in PMC3702667.
pKd: −log10 of the molar value.

Legend:
[1] = biological target: Fluorescently labeled RECQL5_(1–620) (human) (UniProt O94762); assay: native gel or EMSA
[2] = biological target: RECQL5 KIX domain (RECQL5_(515–620)) (human) (UniProt O94762); assay: SAXS
[3] = biological target: RECQL5 KIX domain (RECQL5_(515–620)) (human) (UniProt O94762); assay: crystal structure

Sequence of Fluorescently labeled RECQL5_(1–620) (human) (O94762 1-620): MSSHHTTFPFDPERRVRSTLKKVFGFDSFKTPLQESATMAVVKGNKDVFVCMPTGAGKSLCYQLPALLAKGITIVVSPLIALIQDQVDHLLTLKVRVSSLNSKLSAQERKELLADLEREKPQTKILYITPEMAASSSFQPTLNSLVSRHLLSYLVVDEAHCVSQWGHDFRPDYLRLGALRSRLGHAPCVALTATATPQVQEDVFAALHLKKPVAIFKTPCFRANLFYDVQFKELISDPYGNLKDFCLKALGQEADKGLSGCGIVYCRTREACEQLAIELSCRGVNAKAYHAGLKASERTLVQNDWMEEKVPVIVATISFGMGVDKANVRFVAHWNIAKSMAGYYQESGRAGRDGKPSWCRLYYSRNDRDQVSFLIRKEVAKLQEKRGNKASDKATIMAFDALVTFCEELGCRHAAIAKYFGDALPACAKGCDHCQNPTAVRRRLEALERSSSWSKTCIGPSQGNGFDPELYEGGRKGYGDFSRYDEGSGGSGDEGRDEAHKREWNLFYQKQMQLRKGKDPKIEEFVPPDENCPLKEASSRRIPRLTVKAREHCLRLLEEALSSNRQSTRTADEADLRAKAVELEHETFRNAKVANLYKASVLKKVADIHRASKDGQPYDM

pKd [1]	stoichiometry N [2]	stoichiometry N [3]	Substance
7.40			human RNA polymerase II (from UniProt P24928;P30876) (complex)
	2	2	RECQL5 KIX domain (RECQL5_(515–620)) (from UniProt O94762 515-620) (domain or fragment)
